In CN118050507A one finds Neu 50 (病毒中和试验) data, which are given here for one molecule.

This experiment deals with O型FMDV流行毒株 (Foot-and-mouth disease virus serotype O). Nature of the experiment: cell-based or functional assay.

B1: O型口蹄疫病毒中和抗体Ab1 (VHH)
VHH: QVQLQESGGGLVQPGGSLRLSCAASGTPFSGGSINEISINHLGWYRQAPGKERELVAAITRGGSTYYADSVKGRFAISRDDAKKMVYLQMNSLKPEDTAVYYCNGLRASTAQWEESETTWGQGTQVTVSS
Molecule B1 showed a Neu 50 (病毒中和试验) of 0.8 µmol/L.
